Literature values in patent US20260091141A1, “GENE EDITING METHODS, SYSTEMS, AND COMPOSITIONS FOR TREATING SPINAL MUSCULAR ATROPHY” (The Broad Institute, Inc., priority 2023, published 2026).

System: DNA
Details: SpCas9 mutation relative to SEQ ID NO: 209; UniProtKB Q99ZW2 entry

B1: 175-307 deletion: SpCas9 mutation relative to SEQ ID NO: 209 (protein)
chain: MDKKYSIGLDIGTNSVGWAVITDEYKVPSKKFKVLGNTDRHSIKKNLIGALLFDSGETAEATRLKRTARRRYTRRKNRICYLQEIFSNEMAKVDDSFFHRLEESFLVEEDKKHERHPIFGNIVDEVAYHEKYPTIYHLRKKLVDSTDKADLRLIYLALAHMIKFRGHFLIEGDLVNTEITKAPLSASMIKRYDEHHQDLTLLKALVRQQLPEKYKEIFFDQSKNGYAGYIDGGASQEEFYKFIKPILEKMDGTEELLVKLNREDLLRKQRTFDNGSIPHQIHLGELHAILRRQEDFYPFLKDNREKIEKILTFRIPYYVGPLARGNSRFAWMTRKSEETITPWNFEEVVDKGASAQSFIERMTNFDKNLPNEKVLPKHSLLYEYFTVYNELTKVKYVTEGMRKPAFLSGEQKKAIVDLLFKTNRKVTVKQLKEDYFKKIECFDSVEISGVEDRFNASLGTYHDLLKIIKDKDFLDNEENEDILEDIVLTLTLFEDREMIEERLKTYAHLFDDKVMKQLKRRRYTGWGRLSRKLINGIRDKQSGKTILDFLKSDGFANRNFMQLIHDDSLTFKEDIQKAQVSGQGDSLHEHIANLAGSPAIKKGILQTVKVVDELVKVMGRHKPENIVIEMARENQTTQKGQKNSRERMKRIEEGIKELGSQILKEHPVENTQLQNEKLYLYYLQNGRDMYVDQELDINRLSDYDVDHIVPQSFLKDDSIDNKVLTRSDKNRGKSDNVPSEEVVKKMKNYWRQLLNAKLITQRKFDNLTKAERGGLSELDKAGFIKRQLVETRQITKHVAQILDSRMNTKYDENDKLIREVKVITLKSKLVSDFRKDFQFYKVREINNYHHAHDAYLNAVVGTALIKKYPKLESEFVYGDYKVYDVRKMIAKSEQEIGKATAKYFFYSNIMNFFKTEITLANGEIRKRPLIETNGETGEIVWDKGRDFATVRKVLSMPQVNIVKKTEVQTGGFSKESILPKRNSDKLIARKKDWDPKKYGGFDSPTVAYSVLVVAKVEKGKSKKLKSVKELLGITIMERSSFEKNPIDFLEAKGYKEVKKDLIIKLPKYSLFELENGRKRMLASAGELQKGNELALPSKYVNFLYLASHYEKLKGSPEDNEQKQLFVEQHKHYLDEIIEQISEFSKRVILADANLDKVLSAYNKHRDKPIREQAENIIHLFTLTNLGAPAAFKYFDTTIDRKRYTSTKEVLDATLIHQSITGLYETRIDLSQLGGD
modifications: serotype M1; Streptococcus pyogenes
Function/Characteristic (as reported): About 50% decreased DNA cleavage
